To fix the notation:
B1: TPR 5TU (parent)
chain: GGAUCUUCUCGAUCUAACAAAAAAGACAAAUCUGCCACAAAGCUUGAGAGCAUCUUCGGAUGCAGAGGCGGCAGCCUUCGGUGGCGCGAUAGCGCCAACGUUCUCAACUAUGACACGCAAAACGCGUGCUCCGUUGAAUGGAGUUUAUCAUG

Fewer inactive variants are shown than the library holds.

This series covers variants of B1. Kind of series: polymerase ribozyme fitness, log enrichment relative to wild type (log ratio); higher = more active; in vitro selection for triplet polymerase activity. A digest of the protocol:
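Only genotypes with ≥10 input reads and ≥1 read per output were kept after Illumina sequencing of input and output libraries. These libraries were PCR-built, transcribed mutants of each subunit of a heterodimeric triplet polymerase ribozyme, each put through one triplicate in vitro selection round with frozen incubation at −7 °C, gel excision of extended constructs, streptavidin-bead capture and RT-PCR. Fitness is a logarithmic ratio of genotype enrichment to wild-type enrichment, from inverse-variance-weighted replicate averages, with the logarithm in base 2.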
For the variant C57U U61G C76A, the “polymerase ribozyme fitness (log ratio)” value was not above -4.2. With G70C G86C the figure was not above -4.2.

As for A26C C131U, the “polymerase ribozyme fitness (log ratio)” value was -0.797. On to G81C A107U, for which the “polymerase ribozyme fitness (log ratio)” value was -3.29. As to U4C U56G G83A C87A, the “polymerase ribozyme fitness (log ratio)” value is not above -4.2.

Regarding A73G G81A C85U, the “polymerase ribozyme fitness (log ratio)” value was found to be 0.246. With C5A C75U C87U the figure was 0.223; with U31C C76G U109G A119G G141C, not above -4.2. The figure for A20U A26U G83C is not above -4.2; for A89G A120C it is -1.41.

Take A19C U56A C85G U148A: the “polymerase ribozyme fitness (log ratio)” value was -3.88. The figure for A17U G34U C43U C63A C87A A106C C108A is not above -4.2. With C10G A26U C43A G94C U127C G143U the figure was not above -4.2; with A3U A26U G42C G58U C87A C125U C131G C132G, not above -4.2. On to C8G A29G G50U C85U C125A, for which the “polymerase ribozyme fitness (log ratio)” value is not above -4.2. G42C C95U: the “polymerase ribozyme fitness (log ratio)” value was -4.14. U82G A115U: the “polymerase ribozyme fitness (log ratio)” value is -1.61.

Take C18G U82C C85A A142C: the “polymerase ribozyme fitness (log ratio)” value is -2.92.

On to A3U C27G C95U A150G, for which the “polymerase ribozyme fitness (log ratio)” value was not above -4.2.

Take A30G A106U A115U C116A A120G: the “polymerase ribozyme fitness (log ratio)” value is not above -4.2.

In the case of A3C A22U G86A G92U, the “polymerase ribozyme fitness (log ratio)” value is -2.91. With A64U G84U the figure was not above -4.2; with U13C A22C U53A C116A, 0.349. In the case of A3U C10U U15C, the “polymerase ribozyme fitness (log ratio)” value is -1.19. With C5G G50U G84U the figure was -1.65. With U15C U44C U61A G70U G80A C96U the figure was not above -4.2; with G50C C116A U144A C149G, not above -4.2; with G25U A28U G50A G83C C87G A89U A91G, not above -4.2. Consider A22U A49G A60G G83U G84U, for which the “polymerase ribozyme fitness (log ratio)” value was -3.24. The figure for G83U U104C is -0.855; for C27A U44A U45A C93G it is -4.2; for U13C C18G C35G A40G C63A A91U C118U C132U A150U it is not above -4.2.

On to A30C C105U, for which the “polymerase ribozyme fitness (log ratio)” value is not above -4.2. Regarding U45A C54U, the “polymerase ribozyme fitness (log ratio)” value was -2.52. With A37G A49U C51U C85U G92A C96A A97G U144A U146G the figure was not above -4.2. The figure for A16G A17C A41U U55A C76U C85A is not above -4.2; for A21C C27G A64C C85A it is not above -4.2. For the variant U53C U139G, the “polymerase ribozyme fitness (log ratio)” value amounted to 0.0757.

In the case of U90G G141U, the “polymerase ribozyme fitness (log ratio)” value was not above -4.2. As to A22U U61G G86A U104G, the “polymerase ribozyme fitness (log ratio)” value is not above -4.2. Consider U9A A22G C36A A39C G65U C87U C95A G126A G136A U139C, for which the “polymerase ribozyme fitness (log ratio)” value is not above -4.2.

In the case of C14U G83A C116A G141A, the “polymerase ribozyme fitness (log ratio)” value was -3.95.

Regarding U15A A20C C76U U82G A91U C118A G140C, the “polymerase ribozyme fitness (log ratio)” value was not above -4.2. In the case of A39U C93U U144C, the “polymerase ribozyme fitness (log ratio)” value is -3.54. With C38U A73G G86A A91U A97G A115C the figure was not above -4.2. Regarding U6C A21U C85U, the “polymerase ribozyme fitness (log ratio)” value was -0.501. The figure for A60U G141C is -1.16; for C10G A52C it is not above -4.2; for C8G C54U it is -3.66. For the variant A24C G141C, the “polymerase ribozyme fitness (log ratio)” value was -3.54. In the case of A3G C72U C85U U146C, the “polymerase ribozyme fitness (log ratio)” value is -0.724. With C10A G25A A29U A89C G92U C108U A113U G117C the figure was not above -4.2. For the variant G74C U130A, the “polymerase ribozyme fitness (log ratio)” value is not above -4.2. The figure for A37C U44A C87A G94A U134G G141U is not above -4.2; for C79A U144A A147C it is not above -4.2.

Consider U7A C63U A73G A120G U146A, for which the “polymerase ribozyme fitness (log ratio)” value was not above -4.2. The figure for G67C G94A C95G A150G is not above -4.2; for C54U G68A A97G G124A U144C it is -3.84. For G25C C99U C114G C118U, the “polymerase ribozyme fitness (log ratio)” value was not above -4.2. With U33G G42A A49G C95G the figure was not above -4.2. Consider A121G U148A, for which the “polymerase ribozyme fitness (log ratio)” value was -3.78. The figure for C57U G68A C75G C76G C87A A98U U145C is not above -4.2; for C14G U15C C38U C114U it is -2.11; for U53A A89C it is -0.605.

Take C10U U56A G67C G86C C96A G126U: the “polymerase ribozyme fitness (log ratio)” value was not above -4.2. As to A113C C118A C125U, the “polymerase ribozyme fitness (log ratio)” value was not above -4.2. Take A52G C85G G141A: the “polymerase ribozyme fitness (log ratio)” value was -1.37.

On to U15C C85U G92U G141C U144C, for which the “polymerase ribozyme fitness (log ratio)” value was -3.03. Regarding A37G C87U G136U, the “polymerase ribozyme fitness (log ratio)” value is -3.7. The figure for C85G C96A A97G U102A C132A U135A is not above -4.2; for C76G U144A it is not above -4.2.

Regarding C116A G141A, the “polymerase ribozyme fitness (log ratio)” value was -2.34.

With U56G, the “polymerase ribozyme fitness (log ratio)” value is -0.573. The figure for C114G G141C U148A is not above -4.2; for A20C G48U G100C C116A it is not above -4.2; for C96U A110G it is -3.55.

As to A97U C118G A121G, the “polymerase ribozyme fitness (log ratio)” value was -1.56. With A12U A23G C87U A150C the figure was not above -4.2; with U55G G88U G94A G124A C125G G126A A142U, not above -4.2. With A19U C96U A120G A121C the figure was -0.837; with G11A C96G, -1.49.

In the case of A19U, the “polymerase ribozyme fitness (log ratio)” value was -0.43. With G58C G94U C131U the figure was -0.209; with C8U U61A C95A U146G, not above -4.2.
